The target of one series is T1, ADC-1 (Acinetobacter baumannii, UniProt Q9L4R5).
T1 construct: gene ampC; expressed and purified as in earlier work (gene in pET24a(+)); dimer in asymmetric unit
Kind of series: X-ray crystal structure of acyl-enzyme (soak). The conditions noted are these: covalent; acyl-enzyme at Ser64; two binding modes, monomers A and B.

The test system of series [1] is C[C@@H](O)[C@H]1C(=O)N2C(C(=O)O)=C(SCCN=CN)C[C@H]12. Kind of series: purified protein. The conditions noted are these: 50 mM sodium phosphate, pH 7.4, 22°C.
The test system of series [2] is C[C@@H](O)[C@H]1C(=O)N2C(C(=O)O)=C(S[C@@H]3CN[C@H](C(=O)N(C)C)C3)[C@H](C)[C@H]12. Kind of series: purified protein. The conditions noted are these: 50 mM sodium phosphate, pH 7.4, 22°C.
Series [3] concerns C[C@@H](O)[C@H]1C(=O)N2C(C(=O)O)=C(S[C@@H]3CN[C@H](C(=O)Nc4cccc(C(=O)O)c4)C3)[C@H](C)[C@H]12. Kind of series: purified protein. The conditions noted are these: 50 mM sodium phosphate, pH 7.4, 22°C.
Series [4] deals with C[C@@H](O)[C@H]1C(=O)N2C(C(=O)O)=C(S[C@@H]3CN[C@H](CNS(N)(=O)=O)C3)[C@H](C)[C@H]12. Kind of series: purified protein. The conditions noted are these: 50 mM sodium phosphate, pH 7.4, 22°C.
For series [5], the system named is CC1(C)S[C@@H]2[C@H](NC(=O)[C@H](N)c3ccccc3)C(=O)N2[C@H]1C(=O)O. Kind of series: purified protein. The conditions noted are these: 50 mM sodium phosphate, pH 7.4, 22°C.

Some results are limits rather than exact numbers.

Turning to `C[C@@H](O)[C@H]1C(=O)N2C(C(=O)O)=C(S[C@@H]3CN[C@H](C(=O)Nc4cccc(C(=O)O)c4)C3)[C@H](C)[C@H]12` [ETP, ertapenem], the “X-ray crystal structure of acyl-enzyme (soak)” value at ADC-1 is on record as “The crystal structure of the ADC-1–ertapenem acyl–enzyme complex shows a clear dimorphism between the two monomers”.

As usually defined, the Km is the substrate concentration at which the rate is half of its maximum. What is called kcat is the maximal rate divided by the concentration of active sites. Broadly, the kcat/Km is the turnover number divided by the Michaelis constant. As for ADC-68 (Acinetobacter baumannii), the Km amounted to 1.0 ± 0.2 µM in series [1], 50 ± 4 µM in series [2], 3.5 ± 0.7 µM in series [3] and 6.0 ± 0.4 µM in series [4]. In addition, the catalytic constant (kcat) in series [1] came to 0.0036 ± 0.0001 s⁻¹; in series [2] it was 0.028 ± 0.001 s⁻¹; in series [3], 0.011 ± 0.001 s⁻¹; in series [4], 0.0049 ± 0.0001 s⁻¹; in series [5], 3.2 ± 0.1 s⁻¹. The kcat/Km was 3600 ± 700 M⁻¹ s⁻¹ in series [1]; 550 ± 40 M⁻¹ s⁻¹ in series [2]; 3300 ± 700 M⁻¹ s⁻¹ in series [3]; 820 ± 60 M⁻¹ s⁻¹ in series [4]; ≥ 650000 M⁻¹ s⁻¹ in series [5].

With ADC-1 (Acinetobacter baumannii), in series [1], the Km is 1.3 ± 0.2 µM, the kcat was found to be 0.001 s⁻¹ and the kcat/Km is 810 M⁻¹ s⁻¹. In series [2], the Km was 11 ± 1 µM, the turnover number (kcat) amounted to 0.0034 s⁻¹ and the kcat/Km came out at 310 M⁻¹ s⁻¹. In series [3], the kcat turned out to be 0.00037 s⁻¹ and the kcat/Km was ≥ 370 M⁻¹ s⁻¹.

The values are drawn from PMC12153350, “Evolution of carbapenemase activity in the class C β-lactamase ADC-1” (mBio, 2025).
